From paper PMC3897220, “A comparative study of Whi5 and retinoblastoma proteins: from sequence and structure analysis to intracellular networks” (Frontiers in Physiology, 2013)

Columns and labels:
[1] = target: Whi5 (Whi5Sc) motif 3, 245-267 (UniProt Q12416); test: SPR, biotinylated motif 3 on streptavidin chip; details: reference: unphosphorylated motif 1 peptide; sites T143,S154,S156,S161
[2] = target: T1, Whi5^Sc motif 3 peptide (residues 245-267), biotinylated (S. cerevisiae, UniProt Q12416 245-267, biotin (position not given)); test: SPR; BIAcore X; biotinylated motif 3 immobilised on streptavidin Sensor Chip SA (~1000 resonance units), reference cell saturated with biotin; analytes motif 1 and phospho-motif 1 at 20 to 340 uM; HBS-EP buffer, flow 5 ul/min; details: both partners purified
T1 construct: Whi5 of Saccharomyces cerevisiae, motif 3, residues 245-267 (Whi5^Sc numbering); Held on a streptavidin chip by its biotin; source: synthetic peptide (Primm, Milano, Italy)
T1 peptide (looked up): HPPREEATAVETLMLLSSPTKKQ

In the case of “Whi5 (Whi5Sc) motif 1, 136-162 (from UniProt Q12416) phospho-motif 1 peptide (pT143, pS154, pS156, pS161)”, the “binding against the reference” value [1] is reported as “weaker”.

B1: Whi5^Sc motif 1 peptide (residues 136-162) (peptide, UniProt Q12416 136-162, looked up)
peptide: MPLLPPTTPKSRRSEVFLSPSPRLRSP
notes: Whi5 of Saccharomyces cerevisiae, motif 1, residues 136-162 (Whi5^Sc numbering); source: synthetic peptide (Primm, Milano, Italy)
B1: binds [2].
